Literature values, collected in PMC6295471.

Legend:
Mxd1 5-24 (Homo sapiens) = Mxd1 5-24 (Homo sapiens) (UniProt Q05195)
Mxd1 5-20 (Homo sapiens) = Mxd1 5-20 (Homo sapiens) (UniProt Q05195)
Sap30 SID (Mus musculus) = Sap30 SID (Mus musculus) (UniProt O88574)
UniProt O88574, sequence (O88574 130-220): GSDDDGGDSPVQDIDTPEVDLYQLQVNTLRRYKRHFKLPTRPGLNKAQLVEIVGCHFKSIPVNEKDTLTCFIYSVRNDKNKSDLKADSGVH

UniProt Q05195, sequence (Q05195 5-24): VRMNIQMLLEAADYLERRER

Sin3 PAH2 (from UniProt Q62141)
Kd (Mxd1 5-24 (Homo sapiens)): 400 nM
Kd (Mxd1 5-20 (Homo sapiens)): 1400 nM

Sin3 PAH3 (from UniProt Q60520)
Kd (Sap30 SID (Mus musculus)): 10 nM
